# Test results taken from paper PMC5137453 (Nucleic Acids Research, 2016).
# Substitutions are numbered along the chain they refer to. Numbers in names are those of the source.
# T1: CPS-6 H148A/F122A (Caenorhabditis elegans, UniProt Q95NM6 63-305, H148A;F122A)
# T1 sequence: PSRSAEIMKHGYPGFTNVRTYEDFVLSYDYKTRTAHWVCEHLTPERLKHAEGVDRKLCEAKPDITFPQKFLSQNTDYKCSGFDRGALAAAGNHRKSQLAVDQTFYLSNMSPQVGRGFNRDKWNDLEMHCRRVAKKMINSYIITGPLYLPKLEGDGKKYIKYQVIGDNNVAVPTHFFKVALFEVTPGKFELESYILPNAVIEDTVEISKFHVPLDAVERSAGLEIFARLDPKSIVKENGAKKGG
# T2: CPS-6 H148A (Caenorhabditis elegans, UniProt Q95NM6 63-305, H148A)
# T2 sequence: T1 sequence with A60F
# T3: CPS-6 H148A/P207E (Caenorhabditis elegans, UniProt Q95NM6 63-305, H148A;P207E)
# T3 sequence: T1 sequence with A60F, P145E
# T4: CPS-6 H148A/K131D/F132N (Caenorhabditis elegans, UniProt Q95NM6 63-305, H148A;K131D;F132N)
# T4 sequence: T1 sequence with A60F, K69D, F70N
# B1: CPS-6 H148A (enzyme)
# chain: T1 sequence with A60F
# B2: CPS-6 H148A/F122A (enzyme)
# chain: T1 sequence
# B3: 8-nt ssDNA (5'-TTTTTTGT-3') (ssDNA)
# DNA: TTTTTTGT
# B4: 48-nt ssDNA (ssDNA)
# DNA: ACGCTGCCGAATTCTGGCGTTAGGAGATACCGATAAGCTTCGGCTTAA
# How the values were obtained:
# [1] = target: the molecule itself; assay: SEC
# [2] = target: T1, CPS-6 H148A/F122A; assay: X-ray crystallography
# [3] = target: T2, CPS-6 H148A; assay: filter binding
# [4] = target: T3, CPS-6 H148A/P207E; assay: filter binding
# [5] = target: T4, CPS-6 H148A/K131D/F132N; assay: filter binding
binder,measurement,setting,value
B1,stoichiometry N,[1],2
B2,stoichiometry N,[1],2
B3,binding result,[2],binds
B4,Kd,[3],159 nM
same,Kd,[4],804 nM
same,Kd,[5],659 nM
